# From article PMC9352680, “A comprehensive thermodynamic model for RNA binding by the Saccharomyces cerevisiae Pumilio protein PUF4”
# T1: PUF4 RNA-binding domain (Saccharomyces cerevisiae, UniProt P25339 537-888)
# T1 sequence: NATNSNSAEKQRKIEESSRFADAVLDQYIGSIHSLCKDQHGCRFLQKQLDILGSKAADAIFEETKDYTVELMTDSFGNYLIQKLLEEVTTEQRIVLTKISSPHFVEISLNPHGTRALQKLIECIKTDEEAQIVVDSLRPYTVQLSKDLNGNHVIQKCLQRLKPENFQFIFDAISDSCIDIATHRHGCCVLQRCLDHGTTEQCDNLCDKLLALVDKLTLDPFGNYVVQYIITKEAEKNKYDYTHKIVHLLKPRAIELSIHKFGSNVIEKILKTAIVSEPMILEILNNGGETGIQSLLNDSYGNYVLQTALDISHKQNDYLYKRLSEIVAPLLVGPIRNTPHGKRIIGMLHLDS
# Biological target: T1, PUF4 RNA-binding domain
# Assay: Mg; RNA-MaP; 20 mM Na-HEPES pH 7.4, 30 mM KOAc, 0.75 mM MgCl2, 0.1% Tween-20, 5% glycerol, 0.1 mg/mL BSA, 2 mM DTT; 25 C; 0.0125-409.6 nM protein
# Settings: tags: N-His6-TEV cleaved; C-SNAP kept, Cy3B-labelled; label: tethered on chip by stalled RNA polymerase
row,Binder,Kd
1,UCUCUUUGUACGCCCAUCUCUU (ssRNA) [Ic_S1_P5E.1_K5.1_C5.1_H5.1_A5.1_[T5C]_[T6G]_[A7C]_F5.1_[T8C]_[T9C]_T5.1],564 nM
2,UCUCUUUGUACAAUGGUCUCUU (ssRNA) [Ic_S1_P5E.1_K5.1_C5.1_H5.1_A5.1_[T5C]_[T6A]_F5.1_[T9G]_[A10G]_T5.1],12.5 nM
3,UCUCUUUGUAAAUUAAUCUCUU (ssRNA) [Ic_S1_P5E.1_K5.1_C5.1_H5.1_A5.1_[T5A]_[T6A]_[A7T]_F5.1_[T9A]_T5.1],1.57 nM
4,UCUCUUAGUAUCUAUCUCUU (ssRNA) [Ib_S1_P3E.1_K3.1_C3.1_H3.1_[T1A]_A3.1_[A6C]_F3.1_T3.1],> 2300 nM
5,UCUCUUUAUACAUAUCUCUU (ssRNA) [Ib_S1_P3E.1_K3.1_C3.1_H3.1_[G2A]_A3.1_[T5C]_F3.1_T3.1],900 nM
6,UCUCUUUGUACUGCAUUCUCUU (ssRNA) [Ic_S1_P5E.1_K5.1_C5.1_H5.1_A5.1_[T5C]_[A7G]_F5.1_[T8C]_[T9A]_[A10T]_T5.1],534 nM
7,Ic_S2_P3E.1_K3.1_C3.1_H3.1_A3.1_[T5G]_[A6C]_F3.1_[T7G]_[A8T]_T3.1 (ssRNA) RNA: UUUGAUUAAUAUGAUAUCGUUCUUUCUUGUAGCGUUUCUUUCUCGAUAUCAUAUUAAUCUUU,163 nM
8,Ic_S2_P3E.1_K3.1_C3.1_H3.1_A3.1_[T5C]_[A6T]_F3.1_[T7A]_[A8C]_T3.1 (ssRNA) RNA: UUUGAUUAAUAUGAUAUCGUUCUUUCUUGUACUACUUCUUUCUCGAUAUCAUAUUAAUCUUU,47 nM
9,Ic_S2_P3E.1_K3.1_C3.1_H3.1_A3.1_[T5C]_[A6T]_F3.1_[T7C]_[A8C]_T3.1 (ssRNA) RNA: UUUGAUUAAUAUGAUAUCGUUCUUUCUUGUACUCCUUCUUUCUCGAUAUCAUAUUAAUCUUU,126 nM
10,Ic_S2_P3E.1_K3.1_C3.1_H3.1_A3.1_[T5C]_[A6C]_F3.1_[T7G]_[A8T]_T3.1 (ssRNA) RNA: UUUGAUUAAUAUGAUAUCGUUCUUUCUUGUACCGUUUCUUUCUCGAUAUCAUAUUAAUCUUU,55.6 nM
11,Ic_S2_P3E.1_K3.1_C3.1_H3.1_A3.1_[T5C]_[A6C]_F3.1_[T7C]_[A8G]_T3.1 (ssRNA) RNA: UUUGAUUAAUAUGAUAUCGUUCUUUCUUGUACCCGUUCUUUCUCGAUAUCAUAUUAAUCUUU,259 nM
12,Ic_S2_P3E.1_K3.1_C3.1_H3.1_A3.1_[T5G]_[A6C]_F3.1_[T7C]_[A8C]_T3.1 (ssRNA) RNA: UUUGAUUAAUAUGAUAUCGUUCUUUCUUGUAGCCCUUCUUUCUCGAUAUCAUAUUAAUCUUU,526 nM
13,Ic_S2_P3E.1_K3.1_C3.1_H3.1_A3.1_[T5G]_[A6T]_F3.1_[T7A]_T3.1 (ssRNA) RNA: UUUGAUUAAUAUGAUAUCGUUCUUUCUUGUAGUAAUUCUUUCUCGAUAUCAUAUUAAUCUUU,650 nM
14,Ic_S2_P3E.1_K3.1_C3.1_H3.1_A3.1_[T5G]_[A6T]_F3.1_[T7C]_[A8G]_T3.1 (ssRNA) RNA: UUUGAUUAAUAUGAUAUCGUUCUUUCUUGUAGUCGUUCUUUCUCGAUAUCAUAUUAAUCUUU,436 nM
15,Ic_S2_P3E.1_K3.1_C3.1_H3.1_A3.1_[T5C]_[A6C]_F3.1_[T7A]_[A8C]_T3.1 (ssRNA) RNA: UUUGAUUAAUAUGAUAUCGUUCUUUCUUGUACCACUUCUUUCUCGAUAUCAUAUUAAUCUUU,81.3 nM
16,Ic_S2_P3E.1_K3.1_C3.1_H3.1_A3.1_[T5G]_[A6T]_F3.1_[T7A]_[A8T]_T3.1 (ssRNA) RNA: UUUGAUUAAUAUGAUAUCGUUCUUUCUUGUAGUAUUUCUUUCUCGAUAUCAUAUUAAUCUUU,27.7 nM
17,Ic_S2_P3E.1_K3.1_C3.1_H3.1_A3.1_[T5C]_[A6C]_F3.1_[T7A]_T3.1 (ssRNA) RNA: UUUGAUUAAUAUGAUAUCGUUCUUUCUUGUACCAAUUCUUUCUCGAUAUCAUAUUAAUCUUU,30.1 nM
18,Ic_S2_P3E.1_K3.1_C3.1_H3.1_A3.1_[T5G]_[A6T]_F3.1_[A8C]_T3.1 (ssRNA) RNA: UUUGAUUAAUAUGAUAUCGUUCUUUCUUGUAGUUCUUCUUUCUCGAUAUCAUAUUAAUCUUU,191 nM
19,Ic_S2_P3E.1_K3.1_C3.1_H3.1_A3.1_[T5C]_[A6T]_F3.1_[T7A]_T3.1 (ssRNA) RNA: UUUGAUUAAUAUGAUAUCGUUCUUUCUUGUACUAAUUCUUUCUCGAUAUCAUAUUAAUCUUU,33.9 nM
20,Ic_S2_P3E.1_K3.1_C3.1_H3.1_A3.1_[T5C]_[A6T]_F3.1_[T7A]_[A8G]_T3.1 (ssRNA) RNA: UUUGAUUAAUAUGAUAUCGUUCUUUCUUGUACUAGUUCUUUCUCGAUAUCAUAUUAAUCUUU,692 nM
21,Ic_S2_P3E.1_K3.1_C3.1_H3.1_A3.1_[T5G]_[A6T]_F3.1_[T7G]_[A8T]_T3.1 (ssRNA) RNA: UUUGAUUAAUAUGAUAUCGUUCUUUCUUGUAGUGUUUCUUUCUCGAUAUCAUAUUAAUCUUU,105 nM
22,Ic_S2_P3E.1_K3.1_C3.1_H3.1_A3.1_[T5G]_[A6C]_F3.1_[T7C]_[A8T]_T3.1 (ssRNA) RNA: UUUGAUUAAUAUGAUAUCGUUCUUUCUUGUAGCCUUUCUUUCUCGAUAUCAUAUUAAUCUUU,63.9 nM
23,Ic_S2_P3E.1_K3.1_C3.1_H3.1_A3.1_[T5C]_[A6C]_F3.1_[A8T]_T3.1 (ssRNA) RNA: UUUGAUUAAUAUGAUAUCGUUCUUUCUUGUACCUUUUCUUUCUCGAUAUCAUAUUAAUCUUU,7.54 nM

row,Binder,Kd
1,Ic_S2_P3E.1_K3.1_C3.1_H3.1_A3.1_[T5C]_[A6G]_F3.1_[T7C]_[A8C]_T3.1 (ssRNA) RNA: UUUGAUUAAUAUGAUAUCGUUCUUUCUUGUACGCCUUCUUUCUCGAUAUCAUAUUAAUCUUU,126 nM
2,Ic_S2_P3E.1_K3.1_C3.1_H3.1_A3.1_[T5G]_[A6T]_F3.1_[A8T]_T3.1 (ssRNA) RNA: UUUGAUUAAUAUGAUAUCGUUCUUUCUUGUAGUUUUUCUUUCUCGAUAUCAUAUUAAUCUUU,23.2 nM
3,Ic_S2_P3E.1_K3.1_C3.1_H3.1_A3.1_[T5G]_[A6T]_F3.1_[T7G]_[A8C]_T3.1 (ssRNA) RNA: UUUGAUUAAUAUGAUAUCGUUCUUUCUUGUAGUGCUUCUUUCUCGAUAUCAUAUUAAUCUUU,390 nM
4,Ic_S2_P3E.1_K3.1_C3.1_H3.1_A3.1_[T5G]_[A6C]_F3.1_[A8T]_T3.1 (ssRNA) RNA: UUUGAUUAAUAUGAUAUCGUUCUUUCUUGUAGCUUUUCUUUCUCGAUAUCAUAUUAAUCUUU,18.6 nM
5,Ic_S2_P3E.1_K3.1_C3.1_H3.1_A3.1_[T5C]_[A6C]_F3.1_[T7A]_[A8T]_T3.1 (ssRNA) RNA: UUUGAUUAAUAUGAUAUCGUUCUUUCUUGUACCAUUUCUUUCUCGAUAUCAUAUUAAUCUUU,3.72 nM
6,Ic_S2_P3E.1_K3.1_C3.1_H3.1_A3.1_[T5G]_[A6C]_F3.1_[T7C]_[A8G]_T3.1 (ssRNA) RNA: UUUGAUUAAUAUGAUAUCGUUCUUUCUUGUAGCCGUUCUUUCUCGAUAUCAUAUUAAUCUUU,996 nM
7,Ic_S2_P3E.1_K3.1_C3.1_H3.1_A3.1_[T5G]_[A6C]_F3.1_[T7A]_T3.1 (ssRNA) RNA: UUUGAUUAAUAUGAUAUCGUUCUUUCUUGUAGCAAUUCUUUCUCGAUAUCAUAUUAAUCUUU,506 nM
8,Ic_S2_P3E.1_K3.1_C3.1_H3.1_A3.1_[T5G]_[A6C]_F3.1_[T7A]_[A8G]_T3.1 (ssRNA) RNA: UUUGAUUAAUAUGAUAUCGUUCUUUCUUGUAGCAGUUCUUUCUCGAUAUCAUAUUAAUCUUU,754 nM
9,Ic_S2_P3E.1_K3.1_C3.1_H3.1_A3.1_[T5C]_[A6T]_F3.1_[T7C]_[A8T]_T3.1 (ssRNA) RNA: UUUGAUUAAUAUGAUAUCGUUCUUUCUUGUACUCUUUCUUUCUCGAUAUCAUAUUAAUCUUU,10.7 nM
10,Ic_S2_P3E.1_K3.1_C3.1_H3.1_A3.1_[T5G]_[A6T]_F3.1_[T7C]_T3.1 (ssRNA) RNA: UUUGAUUAAUAUGAUAUCGUUCUUUCUUGUAGUCAUUCUUUCUCGAUAUCAUAUUAAUCUUU,751 nM
11,Ic_S2_P3E.1_K3.1_C3.1_H3.1_A3.1_[T5G]_[A6T]_F3.1_[T7C]_[A8T]_T3.1 (ssRNA) RNA: UUUGAUUAAUAUGAUAUCGUUCUUUCUUGUAGUCUUUCUUUCUCGAUAUCAUAUUAAUCUUU,70.3 nM
12,Ic_S2_P3E.1_K3.1_C3.1_H3.1_A3.1_[T5C]_[A6C]_F3.1_[A8G]_T3.1 (ssRNA) RNA: UUUGAUUAAUAUGAUAUCGUUCUUUCUUGUACCUGUUCUUUCUCGAUAUCAUAUUAAUCUUU,17.7 nM
13,Ic_S2_P3E.1_K3.1_C3.1_H3.1_A3.1_[T5C]_[A6G]_F3.1_[T7G]_[A8C]_T3.1 (ssRNA) RNA: UUUGAUUAAUAUGAUAUCGUUCUUUCUUGUACGGCUUCUUUCUCGAUAUCAUAUUAAUCUUU,536 nM
14,Ic_S2_P3E.1_K3.1_C3.1_H3.1_A3.1_[T5C]_[A6T]_F3.1_[T7A]_[A8T]_T3.1 (ssRNA) RNA: UUUGAUUAAUAUGAUAUCGUUCUUUCUUGUACUAUUUCUUUCUCGAUAUCAUAUUAAUCUUU,3.82 nM
15,Ic_S2_P3E.1_K3.1_C3.1_H3.1_A3.1_[T5C]_[A6T]_F3.1_[T7G]_[A8C]_T3.1 (ssRNA) RNA: UUUGAUUAAUAUGAUAUCGUUCUUUCUUGUACUGCUUCUUUCUCGAUAUCAUAUUAAUCUUU,381 nM
16,Ic_S2_P3E.1_K3.1_C3.1_H3.1_A3.1_[T5G]_[A6C]_F3.1_[A8C]_T3.1 (ssRNA) RNA: UUUGAUUAAUAUGAUAUCGUUCUUUCUUGUAGCUCUUCUUUCUCGAUAUCAUAUUAAUCUUU,181 nM
17,Ic_S2_P3E.1_K3.1_C3.1_H3.1_A3.1_[T5C]_[A6G]_F3.1_[A8T]_T3.1 (ssRNA) RNA: UUUGAUUAAUAUGAUAUCGUUCUUUCUUGUACGUUUUCUUUCUCGAUAUCAUAUUAAUCUUU,14.5 nM
18,Ic_S2_P3E.1_K3.1_C3.1_H3.1_A3.1_[T5G]_[A6C]_F3.1_[A8G]_T3.1 (ssRNA) RNA: UUUGAUUAAUAUGAUAUCGUUCUUUCUUGUAGCUGUUCUUUCUCGAUAUCAUAUUAAUCUUU,156 nM
19,Ic_S2_P3E.1_K3.1_C3.1_H3.1_A3.1_[T5C]_[A6T]_F3.1_[T7G]_[A8G]_T3.1 (ssRNA) RNA: UUUGAUUAAUAUGAUAUCGUUCUUUCUUGUACUGGUUCUUUCUCGAUAUCAUAUUAAUCUUU,1390 nM
20,Ic_S2_P3E.1_K3.1_C3.1_H3.1_A3.1_[T5C]_[A6C]_F3.1_[T7C]_[A8T]_T3.1 (ssRNA) RNA: UUUGAUUAAUAUGAUAUCGUUCUUUCUUGUACCCUUUCUUUCUCGAUAUCAUAUUAAUCUUU,12.6 nM
21,UCUCUUUCUAAAUAUCUCUU (ssRNA) [Ib_S1_P3E.1_K3.1_C3.1_H3.1_[G2C]_A3.1_[T5A]_F3.1_T3.1],> 2300 nM
22,UCUCUUUCUAUUUAUCUCUU (ssRNA) [Ib_S1_P3E.1_K3.1_C3.1_H3.1_[G2C]_A3.1_[A6T]_F3.1_T3.1],> 2300 nM
